{"source": "patent US20040087013", "about": "“Stable macroscopic membranes formed by self-assembly of amphiphilic peptides and uses therefor” (published 2004)", "binders": {"B1": {"name": "oligo (dG-Br5dC)22 Z-form (dsDNA)", "DNA 1": "GCGCGCGCGCGCGCGCGCGCGCGCGCGCGCGCGCGCGCGCGCGC", "DNA 2": "GCGCGCGCGCGCGCGCGCGCGCGCGCGCGCGCGCGCGCGCGCGC", "modifications": "5-bromo-dC at all C [5-bromo-dC at all C (2,4,6,8,10,12,14,16,18,20,22,24,26,28,30,32,34,36,38,40,42,44 of each strand)]"}}, "target": "T1, zuotin (ZUO1), yeast-purified fractions (Saccharomyces cerevisiae, UniProt P32527 SEQ:1-433)", "T1 sequence": "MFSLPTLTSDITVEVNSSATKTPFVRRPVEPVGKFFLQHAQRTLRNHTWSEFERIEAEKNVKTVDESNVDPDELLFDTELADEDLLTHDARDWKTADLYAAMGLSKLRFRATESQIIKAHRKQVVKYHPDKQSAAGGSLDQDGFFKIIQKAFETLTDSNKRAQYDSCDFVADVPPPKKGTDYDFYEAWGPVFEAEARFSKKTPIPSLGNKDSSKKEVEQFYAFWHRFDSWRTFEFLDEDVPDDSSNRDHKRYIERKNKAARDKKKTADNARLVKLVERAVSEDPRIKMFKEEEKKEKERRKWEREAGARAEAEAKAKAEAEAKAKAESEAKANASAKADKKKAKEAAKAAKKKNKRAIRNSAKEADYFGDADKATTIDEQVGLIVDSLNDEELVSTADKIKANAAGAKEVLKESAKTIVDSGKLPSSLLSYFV", "assay": "EMSA; fraction FI; 2000-fold excess salmon sperm DNA", "settings": "tags: none; label: 32P; left-handed Z-DNA, 44mer alternating dG-Br5dC", "excerpt": "In order to determine if these band shifts were the result of authentic Z-DNA binding, negatively supercoiled plasmids of pUC19 and pUC19(GC) were used as competitor DNAs in gel retardation competition assays.\nA gel retardation assay was employed to detect proteins with affinity to left-handed Z-DNA. In these assays, two kinds of left-handed DNA probes were used. […] The other probe was derived from a synthetic 44mer oligo(dG-Br⁵dC)₂₂, labelled using Klenow polymerase with [α-³²P]dGTP, and stabilized in the Z-DNA conformation by 10 mM MgCl₂, or 0.1 mM Co(NH₃)₆³⁺. […] In the competition assays, supercoiled pUC19 and pUC19(CG) were added to the reaction samples separately. […] After electrophoresis, the gel was dried and exposed to X-ray film."}
{"binder": "B1", "values": [{"measurement": "binding result", "result": "binds"}]}
